The target of this assay is Saccharomyces cerevisiae Rsm22 protein, C-terminally His6-tagged (construct MA-S17–K628-HHHHHH) (S. cerevisiae) (UniProt P36056). The assay is described as follows: SEC-MALS; pooled and concentrated first SEC peak (higher oligomeric form); Superdex 200 10/300 GL; 40 mM Tris pH 7.5, 500 mM NaCl, 5% glycerol. (In general: SEC sorts molecules by how far they enter the pores of the column.)

Usually stoichiometry N stands for a count of units in the complex or per binding partner. In turn, “Saccharomyces cerevisiae Rsm22 protein, C-terminally His6-tagged (construct MA-S17–K628-HHHHHH) (from UniProt P36056 17-628) (enzyme)” had a stoichiometry N of 2.

The values are drawn from publication PMC8171064.
